T1: PFPQPQLPY peptide
T1 chain: PFPQPQLPY


Molecular target: T1, PFPQPQLPY peptide

Row | Protein | % Improvement on PFPQPQLPY (SEQ ID NO: 67)
1 | Kuma010/011 E221D (protein) AAPTAYTPLDVAQAYQFPEGLDGQGQCIAIIDLGGGYDEASLAQYFASLGVPAPQVVSVSVDGASNQPTGDPKGPDGEVELDIEVAGALAPGAKFAVYFAPDTTAGFLDAITTAIHDPTLKPSVVSISWSGPEDSWTSAAIAAMNRAFLDAAALGVTVLAAAGDSGSTGGEQDGLYHVHFPAASPYVLACGGTRLVASGGRIAQETVWNDGPDGGATGGGVSRIFPLPAWQEHANVPPSANPGASSGRGVPDLAGNADPATGYEVVIDGEATVIGGTSAVAPLFAALVARINQKLGKAVGYLNPTLYQLPADVFHDITEGNNDIANRAQIYQAGPGWDPCTGLGSPIGVRLLQALLPSASQPQ | 105%
2 | Kuma010/011 E221N (protein) AAPTAYTPLDVAQAYQFPEGLDGQGQCIAIINLGGGYDEASLAQYFASLGVPAPQVVSVSVDGASNQPTGDPKGPDGEVELDIEVAGALAPGAKFAVYFAPDTTAGFLDAITTAIHDPTLKPSVVSISWSGPEDSWTSAAIAAMNRAFLDAAALGVTVLAAAGDSGSTGGEQDGLYHVHFPAASPYVLACGGTRLVASGGRIAQETVWNDGPDGGATGGGVSRIFPLPAWQEHANVPPSANPGASSGRGVPDLAGNADPATGYEVVIDGEATVIGGTSAVAPLFAALVARINQKLGKAVGYLNPTLYQLPADVFHDITEGNNDIANRAQIYQAGPGWDPCTGLGSPIGVRLLQALLPSASQPQ | 105%
3 | Kuma010/011 E221H (protein) AAPTAYTPLDVAQAYQFPEGLDGQGQCIAIIHLGGGYDEASLAQYFASLGVPAPQVVSVSVDGASNQPTGDPKGPDGEVELDIEVAGALAPGAKFAVYFAPDTTAGFLDAITTAIHDPTLKPSVVSISWSGPEDSWTSAAIAAMNRAFLDAAALGVTVLAAAGDSGSTGGEQDGLYHVHFPAASPYVLACGGTRLVASGGRIAQETVWNDGPDGGATGGGVSRIFPLPAWQEHANVPPSANPGASSGRGVPDLAGNADPATGYEVVIDGEATVIGGTSAVAPLFAALVARINQKLGKAVGYLNPTLYQLPADVFHDITEGNNDIANRAQIYQAGPGWDPCTGLGSPIGVRLLQALLPSASQPQ | 105%
4 | Kuma011-N424K (protein) AAPTAYTPLDVAQAYQFPEGLDGQGQCIAIIELGGGYDEASLAQYFASLGVPAPQVVSVSVDGASNQPTGDPKGPDGEVELDIEVAGALAPGAKFAVYFAPDTTAGFLDAITTAIHDPTLKPSVVSISWSGPEDSWTSAAIAAMNRAFLDAAALGVTVLAAAGDSGSTGGEQDGLYHVHFPAASPYVLACGGTRLVASGGRIAQETVWNDGPDGGATGGGVSRIFPLPAWQEHAKVPPSANPGASSGRGVPDLAGNADPATGYEVVIDGEATVIGGTSAVAPLFAALVARINQKLGKAVGYLNPTLYQLPADVFHDITEGNNDIANRAQIYQAGPGWDPCTGLGSPIGVRLLQALLPSASQPQ | 285%
5 | Kuma010/011 E221Q (protein) AAPTAYTPLDVAQAYQFPEGLDGQGQCIAIIQLGGGYDEASLAQYFASLGVPAPQVVSVSVDGASNQPTGDPKGPDGEVELDIEVAGALAPGAKFAVYFAPDTTAGFLDAITTAIHDPTLKPSVVSISWSGPEDSWTSAAIAAMNRAFLDAAALGVTVLAAAGDSGSTGGEQDGLYHVHFPAASPYVLACGGTRLVASGGRIAQETVWNDGPDGGATGGGVSRIFPLPAWQEHANVPPSANPGASSGRGVPDLAGNADPATGYEVVIDGEATVIGGTSAVAPLFAALVARINQKLGKAVGYLNPTLYQLPADVFHDITEGNNDIANRAQIYQAGPGWDPCTGLGSPIGVRLLQALLPSASQPQ | 105%

From patent US20180142226
